From patent US9598677B2, “Use of human biliverdin reductase and fragments thereof for the treatment of protein kinase C-delta and ERK related conditions” (University of Rochester, priority 2009, dated 2017)
Ends that are not written are not given here. * marks the point of attachment. Myristoyl = CCCCCCCCCCCCCC(=O)*

What was measured:
PKC-βII = biological target: T1, PKC-βII (Homo sapiens, UniProt P05771); experiment: PKC-βII kinase assay in vitro; assay type: biochemical; settings: MBP substrate, concentrations that markedly inhibited PKC-δ, FIG. 5D
T1 construct: purchased Calbiochem
Description: (§1) Measurement of PKC-β and PKC-ζ activities. Recombinant PKC-βII (Calbiochem) was assayed in vitro in 20 mM HEPES pH 7.2, 15 mM MgCl2, 0.2 mM CaCl2, 1 mM DTT, 25 mM β-glycerophosphate, 50 μg/ml phosphatidylserine and 5 μg/ml diacylglycerol, using 12.5 μM MBP as substrate, using 5 ng of enzyme per 50 μl reaction. 100 μM ATP (containing [γ^32P]-ATP (as above) was used to start the reaction, and incorporation was determined using p81 filter binding (Maines et al., “Human Biliverdin Reductase: A Previously Unknown Activator of Protein Kinase C-βII,” J. Biol. Chem. 282:8110-8122 (2007), which is hereby incorporated by reference in its entirety). Similarly, recombinant PKC-ζ(Millipore) was assayed in 20 mM MOPS pH 7.2, 15 mM MgCl2, 0.2 mM EDTA, with 12.5 μM MBP as substrate, again using 5 ng of enzyme per 50 μl reaction (Lerner-Marmarosh et al., “Regulation of TNF-alpha-Activated PKC-zeta Signaling By the Human Biliverdin Reductase: Identification of Activating and Inhibitory Domains of the Reductase,” FASEB J. 21:3949-3962 (2007), which is hereby incorporated by reference in its entirety). Otherwise, reaction conditions were as for PKC-βII.

PKC-ζ = biological target: T2, PKC-ζ (Homo sapiens, UniProt Q05513); experiment: PKC-ζ kinase assay in vitro; assay type: biochemical; settings: MBP substrate, higher concentrations required than for PKC-δ, FIG. 5D
T2 construct: purchased Millipore
T2 sequence (Q05513 1-592): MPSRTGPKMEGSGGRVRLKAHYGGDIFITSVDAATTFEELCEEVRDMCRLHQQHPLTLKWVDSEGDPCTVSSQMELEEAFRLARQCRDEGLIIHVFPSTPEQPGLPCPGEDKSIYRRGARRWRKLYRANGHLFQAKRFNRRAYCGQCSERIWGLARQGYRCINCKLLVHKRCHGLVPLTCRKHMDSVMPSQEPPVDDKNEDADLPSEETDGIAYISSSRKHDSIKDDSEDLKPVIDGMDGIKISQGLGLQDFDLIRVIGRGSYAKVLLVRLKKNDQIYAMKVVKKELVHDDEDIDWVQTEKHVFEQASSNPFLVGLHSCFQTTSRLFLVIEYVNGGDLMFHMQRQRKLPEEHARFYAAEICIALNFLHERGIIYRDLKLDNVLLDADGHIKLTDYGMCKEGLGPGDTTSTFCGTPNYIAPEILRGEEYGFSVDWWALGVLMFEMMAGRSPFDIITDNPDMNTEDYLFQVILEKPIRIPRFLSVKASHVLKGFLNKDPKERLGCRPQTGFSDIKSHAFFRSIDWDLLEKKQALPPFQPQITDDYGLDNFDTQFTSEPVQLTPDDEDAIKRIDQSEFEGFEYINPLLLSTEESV
Description: as §1

PKC-δ [1] = biological target: T3, PKC-δ (Homo sapiens, UniProt Q05655, DEL151-160); experiment: PKC-δ activity assay in situ in 293A cells; assay type: cell-based; settings: myristoylated peptide, FIG. 5C
T3 construct: The human PKC-δ open reading frame was also cloned in the same vectors; expressed in transfected cells; host or cells: HEK 293A
Description: The PKC-δ activity assay in situ was performed by a modification of procedures detailed by Williams and Schrier (Williams et al., Glucose-Induced Protein Kinase C Activity Regulates Arachidonic Acid Release and Eicosanoid Production by Cultured Glomerular Mesangial Cells,” J. Clin. Invest. 92:2889-2896 (1993), which is hereby incorporated by reference in its entirety). Cells were seeded into 48-well plates and transfected with 0.1 μg/well pcDNA3-hBVR. After 24 h, the medium was replaced with a starvation medium (0.1% serum) and incubation continued for another 24 h to synchronize cells. In some wells, PKC inhibitor Rottlerin (20 μM) was added 30 min before addition of PMA (100 nM) for 15 min. In some wells, hBVR-derived peptides were introduced to cells in their myristoylated form. Cells were washed with medium and incubated for 10 min at 30° C. in 50 μl of kinase assay buffer (137 mM NaCl, 5.4 mM KCl, 10 mM MgCl2, 0.3 mM Na2HPO4, 0.4 mM KH2PO4, 25 mM β-glycerophosphate, 5.5 mM D-glucose, 5 mM EGTA, 1 mM CaCl2, 20 mM HEPES (pH 7.2), 50 μg/ml digitonin, 120 μg/ml of PKC-δ specific substrate (ARRKRKGSFFGG; SEQ ID NO: 52) and 100 μM ATP labeled with 10 μCi/ml [γ-^32P]-ATP). The reaction was stopped with the addition of 25 μl of ice-cold 30% (wt/vol) TCA. The TCA-soluble fraction samples were transferred to p81 phospho-cellulose filters. […]

PKC-δ [2] = biological target: PKC-δ (Homo sapiens, UniProt Q05655); experiment: PMA-induced PKC-δ membrane translocation, confocal microscopy; assay type: cell-based; design: inserting the open reading frame of PKC-δ into the plasmid pDsRed2-C1; expressed in transfected cells; host or cells: 293A; settings: 10 μM myristoylated peptide, PMA 15 min, FIG. 5E
Description: Confocal microscopy: Experimental protocols were based on those described by Edwards et al., “Carboxyl-Terminal Phosphorylation Regulates the Function and Subcellular Localization of Protein Kinase C betall,” J. Biol. Chem. 274:6461-6468 (1999), which is hereby incorporated by reference in its entirety. 293A cells were grown in a chamber slide system (Nalge-Nunc International Corp., Naperville, Ill.). Cells were transfected with pEGFP-hBVR and/or the plasmid expressing Ds2-Red-PKC-δ fusion protein. After a 24 h starvation period, cells were fixed for 10 min in 4% Para-formaldehyde in PBS and permeabilized with 1% Triton X-100 in PBS. The cells were mounted with Vectashield (Vector Laboratories, Inc. Burlingame, Calif.), containing DAPI to visualize the nuclei. Non-transfected cells were permeabilized as above, treated with 1:150 dilution of polyclonal anti-PKC-δ antibodies, washed, blocked, and then treated with polyclonal anti-hBVR antibodies. The PBS-washed cells were then treated with Rhodamine-red-conjugated donkey anti-rabbit IgG antibodies (Jackson ImmunoResearch, West Grove, Pa.) for 30 min, followed by mounting. A Leica TCS SP (model DMRE) confocal microscope was used (Maines et al., “Human Biliverdin Reductase: A Previously Unknown Activator of Protein Kinase C-βII,” J. Biol. Chem. 282:8110-8122 (2007), which is hereby incorporated by reference in its entirety).

Sequence of PKC-δ (Homo sapiens, UniProt Q05655) (Q05655 whole entry, the tested form may be a part): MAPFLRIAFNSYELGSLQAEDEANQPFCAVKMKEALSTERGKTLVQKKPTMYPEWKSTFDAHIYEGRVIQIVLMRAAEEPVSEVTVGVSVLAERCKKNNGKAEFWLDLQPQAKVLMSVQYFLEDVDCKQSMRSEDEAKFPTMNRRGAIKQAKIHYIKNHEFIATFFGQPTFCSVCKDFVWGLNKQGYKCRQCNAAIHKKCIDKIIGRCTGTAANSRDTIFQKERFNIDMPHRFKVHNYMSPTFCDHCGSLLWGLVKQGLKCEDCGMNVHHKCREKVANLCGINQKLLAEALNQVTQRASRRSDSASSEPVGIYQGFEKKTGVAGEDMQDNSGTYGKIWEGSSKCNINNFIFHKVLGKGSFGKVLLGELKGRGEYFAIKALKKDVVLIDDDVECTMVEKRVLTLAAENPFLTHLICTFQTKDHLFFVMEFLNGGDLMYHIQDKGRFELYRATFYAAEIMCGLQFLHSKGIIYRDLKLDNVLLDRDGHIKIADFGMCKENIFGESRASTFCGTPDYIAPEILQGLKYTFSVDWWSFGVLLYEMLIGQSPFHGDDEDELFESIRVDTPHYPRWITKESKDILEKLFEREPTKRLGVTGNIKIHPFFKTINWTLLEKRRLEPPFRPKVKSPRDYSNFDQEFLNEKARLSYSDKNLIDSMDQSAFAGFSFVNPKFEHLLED
T3 sequence (Q05655 with tags, fused parts or gaps DEL151-160): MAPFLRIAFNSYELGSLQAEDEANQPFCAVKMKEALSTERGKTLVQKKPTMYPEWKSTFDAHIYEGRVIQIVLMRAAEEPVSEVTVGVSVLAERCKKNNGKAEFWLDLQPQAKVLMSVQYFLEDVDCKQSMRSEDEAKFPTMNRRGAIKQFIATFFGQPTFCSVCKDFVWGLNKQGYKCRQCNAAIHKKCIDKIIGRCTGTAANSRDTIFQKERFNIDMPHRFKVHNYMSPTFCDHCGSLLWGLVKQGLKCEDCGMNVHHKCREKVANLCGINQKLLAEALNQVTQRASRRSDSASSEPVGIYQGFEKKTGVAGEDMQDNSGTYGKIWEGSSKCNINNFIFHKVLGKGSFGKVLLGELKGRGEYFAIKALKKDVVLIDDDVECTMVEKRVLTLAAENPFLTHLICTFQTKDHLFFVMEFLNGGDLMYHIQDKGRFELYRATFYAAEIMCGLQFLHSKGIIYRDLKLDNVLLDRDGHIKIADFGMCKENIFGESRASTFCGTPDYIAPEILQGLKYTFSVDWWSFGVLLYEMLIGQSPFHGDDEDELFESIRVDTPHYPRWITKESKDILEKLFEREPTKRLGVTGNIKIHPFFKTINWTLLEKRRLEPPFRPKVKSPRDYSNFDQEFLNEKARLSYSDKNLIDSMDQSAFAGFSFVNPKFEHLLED
T1 sequence (P05771 1-673 isoform P05771-2): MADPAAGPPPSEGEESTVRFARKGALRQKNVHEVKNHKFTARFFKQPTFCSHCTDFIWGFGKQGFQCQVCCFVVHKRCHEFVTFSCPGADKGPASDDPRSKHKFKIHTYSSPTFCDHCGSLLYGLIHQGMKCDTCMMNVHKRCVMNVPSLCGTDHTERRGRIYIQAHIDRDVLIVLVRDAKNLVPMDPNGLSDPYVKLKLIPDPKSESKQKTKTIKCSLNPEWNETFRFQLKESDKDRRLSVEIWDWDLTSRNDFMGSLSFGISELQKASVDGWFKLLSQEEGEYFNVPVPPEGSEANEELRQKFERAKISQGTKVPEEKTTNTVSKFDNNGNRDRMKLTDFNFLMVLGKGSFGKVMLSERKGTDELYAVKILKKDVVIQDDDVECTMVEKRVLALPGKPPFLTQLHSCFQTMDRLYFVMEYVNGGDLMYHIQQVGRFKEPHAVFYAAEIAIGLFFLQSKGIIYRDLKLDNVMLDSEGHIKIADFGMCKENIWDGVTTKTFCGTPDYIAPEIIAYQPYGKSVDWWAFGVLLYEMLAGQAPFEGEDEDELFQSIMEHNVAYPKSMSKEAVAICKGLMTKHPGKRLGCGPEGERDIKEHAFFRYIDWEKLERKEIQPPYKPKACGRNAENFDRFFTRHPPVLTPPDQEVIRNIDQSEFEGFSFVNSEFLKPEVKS

Sequence: KRNRYLSF (Myristoyl-KRNRYLSF)
- effect of inhibitory peptide on PKC-βII activity (PKC-βII): essentially unaffected
- effect of inhibitory peptide on PKC-ζ activity (PKC-ζ): responsive
- activity of constitutively active PKC-δ in cells (PKC-δ [1]): effective inhibitor
- PKC-δ translocation to the cell membrane upon PMA (PKC-δ [2]): effectively inhibited
